In article PMC6748592:

Target: CD52 peptide mimotope (…) (human)
Assay: SPR

Kd: 1250 nM
B1: MAB1 light chain N33D mutant (antibody, V domains shown)
VH: EVQLVESGGGLVQPGGSLRLSCAASGFPFSNYWMNWVRQAPGKGLEWVGQIRLKSNNYATHYAESVKGRFTISRDDSKNSLYLQMNSLKTEDTAVYYCTPIDYWGQGTTVTVSS
VL: DIVMTQTPLSLSVTPGQPASISCKSSQSLLYSDGKTYLNWVLQKPGQSPQRLIYLVSKLDSGVPDRFSGSGSGTDFTLKISRVEAEDVGVYYCVQGSHFHTFGQGTKLEIK
